In FireProtDB (doi:10.1006/jmbi.1999.2569):

B1: Ribonuclease, P00648 (parent)
chain: MMKMEGIALKKRLSWISVCLLVLVSAAGMLFSTAAKTETSSHKAHTEAQVINTFDGVADYLQTYHKLPDNYITKSEAQALGWVASKGNLADVAPGKSIGGDIFSNREGKLPGKSGRTWREADINYTSGFRNSDRILYSSDWLIYKTTDHYQTFTKIR

Variants of: B1
Details: Bacillus amyloliquefaciens, pH 6.3, Thermal, DSC, MES 50 mM, structure 1BNI, whole UniProt chain shown; for ddG of mutation (higher = less stable): 54.1 °C

Row | Variant | ddG of mutation (higher = less stable) | Tm | change of melting temperature, mutant - wild type (higher = more stable)
1 | MMKMEGIALKKRLSWISVCLLVLVSAAGMLFSTAAKTETSSHKAHTEAQVINTFDGVADYLQTYHKLPDNYITKSEAQALGWVASKGNLADVAPGKSIGVDIFSNREGKLPGKSGRTWREADINYTSGFRNSDRILYSSDWLIYKTTDHYQTFTKIR [G100V] | 7.8 kcal/mol | 34.5 °C | -19.6 °C
2 | MMKMEGIALKKRLSWISVCLLVLVSAAGMLFSTAAKTETSSHKAHTEAQVINTFDGVADYLQTYHKLPDNYITKSEAQALGWVASKGNLADVAPGKSIGADIFSNREGKLPGKSGRTWREADINYTSGFRNSDRILYSSDWLIYKTTDHYQTFTKIR [G100A] | 3.4 kcal/mol | 45.5 °C | -8.6 °C
3 | MMKMEGIALKKRLSWISVCLLVLVSAAGMLFSTAAKTETSSHKAHTEAQVINTFDGVADYLQTYHKLPDNYITKSEAQALGWVASKGNLADVAPGKSIVGDIFSNREGKLPGKSGRTWREADINYTSGFRNSDRILYSSDWLIYKTTDHYQTFTKIR [G99V] | 8.4 kcal/mol | 33 °C | -21.1 °C
4 | MMKMEGIALKKRLSWISVCLLVLVSAAGMLFSTAAKTETSSHKAHTEAQVINTFDGVADYLQTYHKLPDNYITKSEAQALGWVASKGNLADVAPGKSIAGDIFSNREGKLPGKSGRTWREADINYTSGFRNSDRILYSSDWLIYKTTDHYQTFTKIR [G99A] | 5.3 kcal/mol | – | –
